Laboratory results published in PMC8605023 (2021).

How the values were obtained:
Assay in all cases: FP
[1] = biological target: T1, NTF2 domain of G3BP2 (human, UniProt Q9UN86 11-133)
T1 chain: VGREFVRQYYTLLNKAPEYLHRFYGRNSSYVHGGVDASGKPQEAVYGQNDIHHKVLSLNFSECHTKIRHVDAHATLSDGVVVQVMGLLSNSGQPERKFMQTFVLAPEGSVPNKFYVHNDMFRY

[2] = biological target: NTF2 domain of G3BP1 (human, UniProt Q13283 11-133)
[3] = biological target: SARS-CoV E 1-16
[4] = biological target: SARS-CoV NSP3 2019-2038
[5] = biological target: SARS-CoV-2 E 1-16
[6] = biological target: SARS-CoV-2 NSP3 2019-2038
[7] = biological target: SARS-CoV-2 NSP14 peptide with the YxxL motif, synthetic (SARS-CoV-2, UniProt P0DTD1)
[8] = biological target: SARS-CoV NSP14 peptide with the YxxL motif, synthetic (SARS-CoV, UniProt P0C6X7)
[9] = biological target: MERS-CoV NSP14 peptide with the YxxL motif, synthetic (MERS-CoV, UniProt K9N7C7)

Sequence of NTF2 domain of G3BP1 (Q13283 11-133): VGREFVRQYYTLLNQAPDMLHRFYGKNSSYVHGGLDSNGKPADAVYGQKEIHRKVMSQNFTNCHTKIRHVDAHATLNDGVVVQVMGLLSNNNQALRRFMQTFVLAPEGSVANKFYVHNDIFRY

## APRITFGGPTDSTDNN [SARS-CoV N peptide with the ΦxFG motif, synthetic]
[1]
  Kd: 1.7 µM
[2]
  Kd: 2.8 µM

## APRAVSFADNNDITNT [MERS-CoV N peptide corresponding to the ΦxFG peptide, synthetic]
[1]
  Kd: 26 µM
[2]
  Kd: 51 µM

B1: FERM domain of Radixin (domain or fragment)
chain: INVRVTTMDAELEFAIQPNTTGKQLFDQVVKTVGLREVWFFGLQYVDSKGYSTWLKLNKKVTQQDVKKENPLQFKFRAKFFPEDVSEELIQEITQRLFFLQVKEAILNDEIYCPPETAVLLASYAVQAKYGDYNKEIHKPGYLANDRLLPQRVLEQHKLTKEQWEERIQNWHEEHRGMLREDSMMEYLKIAQDLEMYGVNYFEIKNKKGTELWLGVDALGLNIYEHDDKLTPKIGFPWSEIRNISFNDKKFVIKPIDKKAPDFVFYAPRLRINKRILALCMGNHELYMRRR
[3]
  Kd: 11.9 µM
[4]
  Kd: 217 µM
[5]
  Kd: 11.9 µM
[6]
  Kd: 38 µM

B2: clathrin coat adaptor protein AP2M1, tag removed (domain or fragment)
chain: RNELFLDVLESVNLLMSPQGQVLSAHVSGRVVMKSYLSGMPECKFGMNDKIVIEKQGKGTADETSKSGKQSIAIDDCTFHQCVRLSKFDSERSISFIPPDGEFELMRYRTTKDIILPFRVIPLVREVGRTKLEVKVVIKSNFKPSLLAQKIEVRIPTPLNTSGVQVICMKGKAKYKASENAIVWKIKRMAGMKESQISAEIELLPTNDKKKWARPPISMNFEVPFAPSGLKVRYLKVFEPKLNYSDHDVIKWVRYIGRSGIYETR
[7]
  Kd: 1.6 µM
[8]
  Kd: 1.6 µM
[9]
  Kd: 3 µM

## APRITFGGPSDSTGSN [SARS-CoV-2 N peptide with the ΦxFG motif, synthetic]
[1]
  Kd: 2.8 µM
